Entries after “also recorded” stand apart in the source; their conditions may differ.
Legend:
[1] = Dosimetry: absorbed radiation dose calculation from mouse biodistribution; conditions: for Estimated absorbed dose, pancreas / Estimated absorbed dose, red marrow / Estimated absorbed dose, urinary bladder wall / Estimated absorbed dose, kidneys / Estimated absorbed dose, spleen / Estimated absorbed dose, liver / Estimated absorbed dose, heart wall / Estimated absorbed dose, stomach (stem cell layer) / Estimated absorbed dose, lungs (alveolar–interstitial): RBE 5, female mice; for Estimated absorbed dose, red marrow: dose limit 2; for Estimated absorbed dose, urinary bladder wall: dose limit 20; for Estimated absorbed dose, kidneys: dose limit 23; for Estimated absorbed dose, spleen: dose limit 26; for Estimated absorbed dose, liver: dose limit 30; for Estimated absorbed dose, heart wall / Estimated absorbed dose, stomach (stem cell layer): dose limit 45; for Estimated absorbed dose, lungs (alveolar–interstitial): dose limit 65; for Administered activity at which 23-Gy kidney threshold is reached: female mice as printed, projected mean absorbed dose by modeling
Protocol: Physical decay was used to extrapolate after the last time point. The human equivalent time-integrated activity coefficient for both sexes was calculated by extrapolating mouse biodistribution data to human using standard methods assuming that tissue concentration divided by whole-body concentration in mice is the same as that in humans.
The linear energy transfer of α-particles is approximately 400 times greater than that of photons and β-particles. This difference in energy deposition density leads to fundamentally different biologic effects. Accordingly, the absorbed doses for these different emission types should be weighted appropriately to reflect likely biologic effects. The relative biological effectiveness (RBE) is the appropriate weighting factor for deterministic effects such as tissue toxicity and tumor kill efficacy. The tissue-absorbed doses (with RBE values of 3 and 5) for ^212Pb compounds were calculated.

[2] = Toxicity (dose escalation) study in tumor-free nude mice
Protocol: Control mice received buffer only. Animals were weighed 3 times per week and monitored daily for signs of pain or distress over a 4-wk period after the last injection. Blood was sampled via the submandibular vein using potassium–ethylenediaminetetraacetic acid capillaries and tubes (Greiner Bio-One), and complete cell blood counts were performed using a VETSCAN HM5 hematology analyzer (Abaxis/Zoetis). Animals were euthanized at the scheduled termination or when the termination criteria were met.
Mice were euthanized when tumor volumes reached 1,000 mm^3 (length × width × height) or other predetermined termination criteria were met (weight loss > 15% for 2 consecutive days or 20% weight loss from initial weight, serious bleeding, necrosis or ulceration of the tumor, scruffiness or lack of grooming over 5 d, lethargy over 3 d, weakness/balance issues over 5 d, hunchback appearance, diarrhea, or hypothermia).

[3] = in vivo

In the case of `CC(C)C[C@H](NC(=O)C[C@H](O)[C@H](CC(C)C)NC(=O)[C@H](Cc1c[nH]cn1)NC(=O)CNC(=O)[C@@H](NC(=O)[C@H](C)NC(=O)[C@H](Cc1c[nH]c2ccccc12)NC(=O)[C@H](CCC(N)=O)NC(=O)[C@@H](Cc1ccccc1)NC(=O)CCNC(=O)CCNC(=O)CN1CCN(CC(N)=O)CCN(CC(N)=O)CCN(CC(N)=O)CC1)C(C)C)C(N)=O` [[^212Pb]Pb-DOTAM-GRPR1, metal not drawn], the “Radiation type contribution to total absorbed dose” value [1] is reported as “α-radiation comprised most of the total absorbed dose”, the “Estimated absorbed dose, pancreas” value ([1]; 0.111 GBq (3 mCi)) is reported as 0.287 grays and the “Estimated absorbed dose, red marrow” value ([1]; 0.111 GBq (3 mCi)) is reported as 0.001 grays. For the same compound, the “Estimated absorbed dose, urinary bladder wall” value ([1]; 0.111 GBq (3 mCi)) was 0.021 grays, the “Estimated absorbed dose, kidneys” value ([1]; 0.111 GBq (3 mCi)) was 0.308 grays and the “Estimated absorbed dose, spleen” value ([1]; 0.111 GBq (3 mCi)) was 0.018 grays. For the same compound, the “Estimated absorbed dose, liver” value ([1]; 0.111 GBq (3 mCi)) was 0.109 grays, the “Estimated absorbed dose, heart wall” value ([1]; 0.111 GBq (3 mCi)) was 0.007 grays and the “Estimated absorbed dose, stomach (stem cell layer)” value (shortened to “Estimated absorbed dose, stomach”) ([1]; 0.111 GBq (3 mCi)) was 0.044 grays. For the same compound, the “Estimated absorbed dose, lungs (alveolar–interstitial)” value (shortened to “Estimated absorbed dose, lungs”) ([1]; 0.111 GBq (3 mCi)) was 0.022 grays, the “Estimated absorbed dose, pancreas” value ([1]; 0.555 GBq (15 mCi)) was 1.434 grays and the “Estimated absorbed dose, red marrow” value ([1]; 0.555 GBq (15 mCi)) was 0.004 grays. The “Estimated absorbed dose, urinary bladder wall” value ([1]; 0.555 GBq (15 mCi)) was 0.103 grays, the “Estimated absorbed dose, kidneys” value ([1]; 0.555 GBq (15 mCi)) was 1.540 grays and the “Estimated absorbed dose, spleen” value ([1]; 0.555 GBq (15 mCi)) was 0.091 grays. The “Estimated absorbed dose, liver” value ([1]; 0.555 GBq (15 mCi)) was 0.543 grays, the “Estimated absorbed dose, heart wall” value ([1]; 0.555 GBq (15 mCi)) was 0.036 grays and the “Estimated absorbed dose, stomach” value ([1]; 0.555 GBq (15 mCi)) was 0.219 grays. For the same compound, the “Estimated absorbed dose, lungs” value ([1]; 0.555 GBq (15 mCi)) was 0.108 grays, the “Estimated absorbed dose, pancreas” value ([1]; 1.110 GBq (30 mCi)) was 2.867 grays and the “Estimated absorbed dose, red marrow” value ([1]; 1.110 GBq (30 mCi)) was 0.008 grays. For the same compound, the “Estimated absorbed dose, urinary bladder wall” value ([1]; 1.110 GBq (30 mCi)) was 0.206 grays, the “Estimated absorbed dose, kidneys” value ([1]; 1.110 GBq (30 mCi)) was 3.080 grays and the “Estimated absorbed dose, spleen” value ([1]; 1.110 GBq (30 mCi)) was 0.183 grays. For the same compound, the “Estimated absorbed dose, liver” value ([1]; 1.110 GBq (30 mCi)) was 1.086 grays, the “Estimated absorbed dose, heart wall” value ([1]; 1.110 GBq (30 mCi)) was 0.071 grays and the “Estimated absorbed dose, stomach” value ([1]; 1.110 GBq (30 mCi)) was 0.438 grays. The “Estimated absorbed dose, lungs” value ([1]; 1.110 GBq (30 mCi)) was 0.216 grays, the Dose-limiting organ ([1]; calculated mean effective absorbed dose) was “kidney as the dose-limiting organ; also recorded: the kidneys were shown to be dose-limiting” and the “Administered activity at which 23-Gy kidney threshold is reached” value ([1]; RBE 3) was 13.6 GBq. The “Administered activity at which 23-Gy kidney threshold is reached” value ([1]; RBE 5) was 8.3 GBq, the “Organs with highest absorbed doses” value ([1]; male and female mice) was “the kidneys and pancreas revealed the highest doses for both male and female animals; also recorded: The kidneys and pancreas received the highest dose” and the “Estimated absorbed dose, pancreas” value ([1]; maximum 8.29 GBq (224.05 mCi)) was 21.42 grays. The “Estimated absorbed dose, red marrow” value ([1]; maximum 8.29 GBq (224.05 mCi)) was 0.06 grays, the “Estimated absorbed dose, urinary bladder wall” value ([1]; maximum 8.29 GBq (224.05 mCi)) was 1.54 grays and the “Estimated absorbed dose, kidneys” value ([1]; maximum 8.29 GBq (224.05 mCi)) was 23.00 grays. For the same compound, the “Estimated absorbed dose, spleen” value ([1]; maximum 8.29 GBq (224.05 mCi)) was 1.37 grays, the “Estimated absorbed dose, liver” value ([1]; maximum 8.29 GBq (224.05 mCi)) was 8.11 grays and the “Estimated absorbed dose, heart wall” value ([1]; maximum 8.29 GBq (224.05 mCi)) was 0.53 grays. For the same compound, the “Estimated absorbed dose, stomach” value ([1]; maximum 8.29 GBq (224.05 mCi)) was 3.27 grays, the “Estimated absorbed dose, lungs” value ([1]; maximum 8.29 GBq (224.05 mCi)) was 1.61 grays and the “Hematologic toxicity or weight loss” value ([2]; 1,665 kBq, 30 d, athymic nude male mice) was “no hematologic toxicity or weight loss”. For the same compound, the “Survival in acute toxicity study” value ([2]; 1,665 kBq, full 30-d period, athymic nude male mice) was “all animals survived for the full 30-d period”, the Histopathologic examination ([2]; all groups, male athymic nude mice) was “all groups were essentially within the normal limits” and the “Tolerability / signs of radiation or lead injury” value ([2]; doses used, 370–1,665 kBq single or 3 × 370 or 555 kBq, male athymic nude mice) was “well tolerated at the doses used, with no signs of radiation or lead injury”. The Body weight loss ([2]; highest dose: single 1,665 kBq or 3 fractionated doses of 555 kBq, tumor-free nude male mice) was “body weight loss was minimal after administration and was followed by body weight gain”, the “Kidneys, gastrointestinal mucosa, bone marrow and other organs” value ([2]; histopathology, male athymic nude mice) was “unremarkable” and the Toxic dose ([2]; male athymic nude mice, intravenous) was “more than 1,665 kBq”. For the same compound, the Nontoxic dose ([2]; up to, mice, intravenous) was “up to 1,665 kBq” and the “Effect of renal blockers on kidney retention” value [3] was “neither agent reduced the kidney retention”.

From PMC11533912 (Journal of Nuclear Medicine, 2024)
